This passage reports IC50 and Kd results from patent publication US20110059889A1 (SYNTONIX PHARMACEUTICALS, published 2011).

The labels stand for the following.
B1: Peptide No. 95 (peptide)
peptide: QRF[Pen]TGHWGGLYPCNGP-NH2
modifications: disulfide 4-14; N-terminus assumed
SMILES: CC(C)C[C@@H]1NC(=O)CNC(=O)CNC(=O)[C@H](Cc2c[nH]c3ccccc23)NC(=O)[C@H](Cc2c[nH]cn2)NC(=O)CNC(=O)[C@H]([C@@H](C)O)NC(=O)[C@@H](NC(=O)[C@H](Cc2ccccc2)NC(=O)[C@H](CCCNC(=N)N)NC(=O)[C@@H](N)CCC(N)=O)C(C)(C)SSC[C@@H](C(=O)N[C@@H](CC(N)=O)C(=O)NCC(=O)N2CCC[C@H]2C(N)=O)NC(=O)[C@@H]2CCCN2C(=O)[C@H](Cc2ccc(O)cc2)NC1=O
B2: Peptide No. 52 (peptide)
peptide: QRF[Pen]TGHF[dF]GLYPCNGP-NH2
modifications: disulfide 4-14; N-terminus assumed
SMILES: CC(C)C[C@@H]1NC(=O)CNC(=O)[C@@H](Cc2ccccc2)NC(=O)[C@H](Cc2ccccc2)NC(=O)[C@H](Cc2c[nH]cn2)NC(=O)CNC(=O)[C@H]([C@@H](C)O)NC(=O)[C@@H](NC(=O)[C@H](Cc2ccccc2)NC(=O)[C@H](CCCNC(=N)N)NC(=O)[C@@H](N)CCC(N)=O)C(C)(C)SSC[C@@H](C(=O)N[C@@H](CC(N)=O)C(=O)NCC(=O)N2CCC[C@H]2C(N)=O)NC(=O)[C@@H]2CCCN2C(=O)[C@H](Cc2ccc(O)cc2)NC1=O
B3: Peptide No. 155 (peptide)
peptide: QRF[Pen]TGHF[dF]GPYPCNGP-NH2
modifications: disulfide 4-14; N-terminus assumed
SMILES: C[C@@H](O)[C@@H]1NC(=O)[C@@H](NC(=O)[C@H](Cc2ccccc2)NC(=O)[C@H](CCCNC(=N)N)NC(=O)[C@@H](N)CCC(N)=O)C(C)(C)SSC[C@@H](C(=O)N[C@@H](CC(N)=O)C(=O)NCC(=O)N2CCC[C@H]2C(N)=O)NC(=O)[C@@H]2CCCN2C(=O)[C@H](Cc2ccc(O)cc2)NC(=O)[C@@H]2CCCN2C(=O)CNC(=O)[C@@H](Cc2ccccc2)NC(=O)[C@H](Cc2ccccc2)NC(=O)[C@H](Cc2c[nH]cn2)NC(=O)CNC1=O
B4: Peptide No. 49 (peptide)
peptide: QRF[Pen]TGHF[dR]GLYPCNGP-NH2
modifications: disulfide 4-14; N-terminus assumed
SMILES: CC(C)C[C@@H]1NC(=O)CNC(=O)[C@@H](CCCNC(=N)N)NC(=O)[C@H](Cc2ccccc2)NC(=O)[C@H](Cc2c[nH]cn2)NC(=O)CNC(=O)[C@H]([C@@H](C)O)NC(=O)[C@@H](NC(=O)[C@H](Cc2ccccc2)NC(=O)[C@H](CCCNC(=N)N)NC(=O)[C@@H](N)CCC(N)=O)C(C)(C)SSC[C@@H](C(=O)N[C@@H](CC(N)=O)C(=O)NCC(=O)N2CCC[C@H]2C(N)=O)NC(=O)[C@@H]2CCCN2C(=O)[C@H](Cc2ccc(O)cc2)NC1=O
B5: Peptide No. 150 (peptide)
peptide: QRF[Pen]TGHF[dF][dP]LYPCNGP-NH2
modifications: disulfide 4-14; N-terminus assumed
SMILES: CC(C)C[C@@H]1NC(=O)[C@H]2CCCN2C(=O)[C@@H](Cc2ccccc2)NC(=O)[C@H](Cc2ccccc2)NC(=O)[C@H](Cc2c[nH]cn2)NC(=O)CNC(=O)[C@H]([C@@H](C)O)NC(=O)[C@@H](NC(=O)[C@H](Cc2ccccc2)NC(=O)[C@H](CCCNC(=N)N)NC(=O)[C@@H](N)CCC(N)=O)C(C)(C)SSC[C@@H](C(=O)N[C@@H](CC(N)=O)C(=O)NCC(=O)N2CCC[C@H]2C(N)=O)NC(=O)[C@@H]2CCCN2C(=O)[C@H](Cc2ccc(O)cc2)NC1=O
B6: Peptide No. 50 (peptide)
peptide: QRF[Pen]TGHF[dH]GLYPCNGP-NH2
modifications: disulfide 4-14; N-terminus assumed
SMILES: CC(C)C[C@@H]1NC(=O)CNC(=O)[C@@H](Cc2c[nH]cn2)NC(=O)[C@H](Cc2ccccc2)NC(=O)[C@H](Cc2c[nH]cn2)NC(=O)CNC(=O)[C@H]([C@@H](C)O)NC(=O)[C@@H](NC(=O)[C@H](Cc2ccccc2)NC(=O)[C@H](CCCNC(=N)N)NC(=O)[C@@H](N)CCC(N)=O)C(C)(C)SSC[C@@H](C(=O)N[C@@H](CC(N)=O)C(=O)NCC(=O)N2CCC[C@H]2C(N)=O)NC(=O)[C@@H]2CCCN2C(=O)[C@H](Cc2ccc(O)cc2)NC1=O
B7: Peptide No. 48 (peptide)
peptide: QRF[Pen]TGHF[dP]GLYPCNGP-NH2
modifications: disulfide 4-14; N-terminus assumed
SMILES: CC(C)C[C@@H]1NC(=O)CNC(=O)[C@H]2CCCN2C(=O)[C@H](Cc2ccccc2)NC(=O)[C@H](Cc2c[nH]cn2)NC(=O)CNC(=O)[C@H]([C@@H](C)O)NC(=O)[C@@H](NC(=O)[C@H](Cc2ccccc2)NC(=O)[C@H](CCCNC(=N)N)NC(=O)[C@@H](N)CCC(N)=O)C(C)(C)SSC[C@@H](C(=O)N[C@@H](CC(N)=O)C(=O)NCC(=O)N2CCC[C@H]2C(N)=O)NC(=O)[C@@H]2CCCN2C(=O)[C@H](Cc2ccc(O)cc2)NC1=O
B8: Peptide No. 153 (peptide)
peptide: QRF[Pen]TGHF[dF]G[NMeL]YPCNGP-NH2
modifications: disulfide 4-14; N-terminus assumed
SMILES: CC(C)C[C@H]1C(=O)N[C@@H](Cc2ccc(O)cc2)C(=O)N2CCC[C@H]2C(=O)N[C@H](C(=O)N[C@@H](CC(N)=O)C(=O)NCC(=O)N2CCC[C@H]2C(N)=O)CSSC(C)(C)[C@H](NC(=O)[C@H](Cc2ccccc2)NC(=O)[C@H](CCCNC(=N)N)NC(=O)[C@@H](N)CCC(N)=O)C(=O)N[C@@H]([C@@H](C)O)C(=O)NCC(=O)N[C@@H](Cc2c[nH]cn2)C(=O)N[C@@H](Cc2ccccc2)C(=O)N[C@H](Cc2ccccc2)C(=O)NCC(=O)N1C
B9: Peptide No. 152 (peptide)
peptide: QRF[Pen]TGHF[dP][dP]LYPCNGP-NH2
modifications: disulfide 4-14; N-terminus assumed
SMILES: CC(C)C[C@@H]1NC(=O)[C@H]2CCCN2C(=O)[C@H]2CCCN2C(=O)[C@H](Cc2ccccc2)NC(=O)[C@H](Cc2c[nH]cn2)NC(=O)CNC(=O)[C@H]([C@@H](C)O)NC(=O)[C@@H](NC(=O)[C@H](Cc2ccccc2)NC(=O)[C@H](CCCNC(=N)N)NC(=O)[C@@H](N)CCC(N)=O)C(C)(C)SSC[C@@H](C(=O)N[C@@H](CC(N)=O)C(=O)NCC(=O)N2CCC[C@H]2C(N)=O)NC(=O)[C@@H]2CCCN2C(=O)[C@H](Cc2ccc(O)cc2)NC1=O
B10: Peptide No. 45 (peptide)
peptide: QRF[Pen]TGHFG[dY]LYPCNGP-NH2
modifications: disulfide 4-14; N-terminus assumed
SMILES: CC(C)C[C@@H]1NC(=O)[C@@H](Cc2ccc(O)cc2)NC(=O)CNC(=O)[C@H](Cc2ccccc2)NC(=O)[C@H](Cc2c[nH]cn2)NC(=O)CNC(=O)[C@H]([C@@H](C)O)NC(=O)[C@@H](NC(=O)[C@H](Cc2ccccc2)NC(=O)[C@H](CCCNC(=N)N)NC(=O)[C@@H](N)CCC(N)=O)C(C)(C)SSC[C@@H](C(=O)N[C@@H](CC(N)=O)C(=O)NCC(=O)N2CCC[C@H]2C(N)=O)NC(=O)[C@@H]2CCCN2C(=O)[C@H](Cc2ccc(O)cc2)NC1=O
B11: Peptide No. 148 (peptide)
peptide: QRF[Pen]TGHF[dA][dA]LYPCNGP-NH2
modifications: disulfide 4-14; N-terminus assumed
SMILES: CC(C)C[C@@H]1NC(=O)[C@@H](C)NC(=O)[C@@H](C)NC(=O)[C@H](Cc2ccccc2)NC(=O)[C@H](Cc2c[nH]cn2)NC(=O)CNC(=O)[C@H]([C@@H](C)O)NC(=O)[C@@H](NC(=O)[C@H](Cc2ccccc2)NC(=O)[C@H](CCCNC(=N)N)NC(=O)[C@@H](N)CCC(N)=O)C(C)(C)SSC[C@@H](C(=O)N[C@@H](CC(N)=O)C(=O)NCC(=O)N2CCC[C@H]2C(N)=O)NC(=O)[C@@H]2CCCN2C(=O)[C@H](Cc2ccc(O)cc2)NC1=O
B12: Peptide No. 203 (peptide)
peptide: QRF[Pen]TGHF[dF]PLYPCNGP-NH2
modifications: disulfide 4-14; N-terminus assumed
SMILES: CC(C)C[C@@H]1NC(=O)[C@@H]2CCCN2C(=O)[C@@H](Cc2ccccc2)NC(=O)[C@H](Cc2ccccc2)NC(=O)[C@H](Cc2c[nH]cn2)NC(=O)CNC(=O)[C@H]([C@@H](C)O)NC(=O)[C@@H](NC(=O)[C@H](Cc2ccccc2)NC(=O)[C@H](CCCNC(=N)N)NC(=O)[C@@H](N)CCC(N)=O)C(C)(C)SSC[C@@H](C(=O)N[C@@H](CC(N)=O)C(=O)NCC(=O)N2CCC[C@H]2C(N)=O)NC(=O)[C@@H]2CCCN2C(=O)[C@H](Cc2ccc(O)cc2)NC1=O
B13: Peptide No. 271 (peptide)
peptide: RFCTGXFGGLYPC
modifications: Pen 3; triazolylAla 6 (1,2,3-triazole side chain); Sar 9; NMeL 10; disulfide 3-13; C-terminal amide
B14: Peptide No. 269 (peptide)
peptide: RFCTGXFGGLYPC
modifications: Pen 3; Thz(Me) 6 (N-methyl-thiazolium); Sar 9; NMeL 10; disulfide 3-13; C-terminal CONH2

Bridge positions count the residues as written; N and C are the ends. Square brackets hold non-standard residues; d marks the D form. Ends that are not written are not given here. NMeL = CN[C@@H](CC(C)C)C(=O)O; Pen = CC(C)(S)[C@H](N)C(=O)O

T1 sequence (P55899 24-297 limits assumed, chain 1 of 2): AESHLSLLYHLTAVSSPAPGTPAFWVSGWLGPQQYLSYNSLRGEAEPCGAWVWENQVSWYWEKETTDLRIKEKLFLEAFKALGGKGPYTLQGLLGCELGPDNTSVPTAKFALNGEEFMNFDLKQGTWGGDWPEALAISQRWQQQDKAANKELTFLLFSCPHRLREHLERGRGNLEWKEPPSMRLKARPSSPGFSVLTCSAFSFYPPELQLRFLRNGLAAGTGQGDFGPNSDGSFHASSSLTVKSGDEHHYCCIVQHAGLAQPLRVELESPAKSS
T1 sequence (P61769 21-119 limits assumed, chain 2 of 2): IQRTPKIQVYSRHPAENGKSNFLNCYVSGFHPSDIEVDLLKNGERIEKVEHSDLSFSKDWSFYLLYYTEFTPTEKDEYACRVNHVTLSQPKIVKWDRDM

One assay has as its target T1, soluble human FcRn (shFcRn) (human, UniProt P55899 24-297; P61769 21-119).
T1 construct: Biotinylated for the ELISA, amine-coupled to a CM5 chip for SPR; also called biotinylated shFcRn
Description: IgG competition ELISA.
Description: (§1) The wells were coated with 100 μl/well of 1 μg/ml biotinylated-shFcRn in Buffer A. The plate was sealed and incubated at 37° C. for 2 hours. Afterwards, the plate was washed with 200 μl/well of Buffer B (Buffer B: 100 mM MES pH 6, 150 mM NaCl, 0.5% BSA IgG-free (Jackson ImmunoResearch, West Grove, Pa.), 0.05% Tween-20). […] To allow for mixing, the plate was rocked for 2 minutes, sealed and incubated at 37° C. for 2 hours. […] The plate was covered, incubated for 30 minutes at room temperature and washed 4 times with 200 μl/well of ice-cold buffer B. SureBlue TMB substrate solution (100 μl/well, KPL, Gaithersburg, Md.) was added and the plate was allowed to incubate at room temperature until color developed, which took 5 to 10 minutes. Once color developed, 100 μl/well of TMB stop solution (KPL, Gaithersburg, Md.) was added and the absorbance was measured at 450 nm. The data was plotted as absorbance vs. peptide concentration to derive the inhibitory concentration 50% (IC₅₀) values.
With B1, the IC50 stood at 26 µM.

The next assay addresses T1, soluble human FcRn (shFcRn). Description: IgG competition ELISA. The source holds these as a separate data set.
Description: as §1
QRFCTGHFXGLYPCNGP (Pen 4; Aib 9; disulfide 4-14; C-terminal amide) [Peptide No. 54] showed an IC50 of 17 µM. On to B2, for which the IC50 is 2.8 µM. Still for that read-out and setting: in the case of B3 it was 39 µM; in that of B4, 4.1 µM; in that of B5, 5.9 µM. Molecule B6 displayed a half-maximal inhibitory concentration (IC50) of 3.6 µM. This IC50 is about 1.6-fold lower than that of the molecule before. B7: the IC50 amounted to 5 µM.

In the case of B8, the 50% inhibitory concentration (IC50) stood at 1.3 µM. This IC50 lies about 3.8-fold lower than the previous one. In turn, B9 yielded a concentration for half-maximal inhibition (IC50) of 21 µM.

For another assay the target is unchanged. The experiment in a line: SPR pH 6.
Description: The following steps were performed to cross-link soluble human or cynomolgus FcRn to the dextran surface of a CM5 sensor chip (Biacore AB, Uppsala, Sweden) by an amine coupling reaction involving 1-ethyl-(3-dimethylaminopropyl)-carbodiimide hydrochloride (EDC) (Biacore AB, Uppsala, Sweden) and N-hydroxysuccinimide (NHS) (Biacore AB, Uppsala, Sweden) as recommended by Biacore (BIAapplications Handbook, version AB, section 4.2, Biacore AB, Uppsala, Sweden). […] Residual sites on the FcRn flow cell were blocked with 1 M ethanolamine hydrochloride pH 8.5 (Biacore AB, Uppsala, Sweden). A control flow cell was blocked with ethanolamine for reference subtraction. For analysis of the monomeric peptides, FcRn was coated to a final density of 4000-5000 response units (RU). For analysis of the peptide dimers, FcRn was coated to a density of 2000-2500 RU. All SPR measurements were performed using a BIACORE 3000 Instrument (Biacore AB Uppsala, Sweden). For measurements done at either pH 6 or pH 7.4, experiments were performed in 50 mM phosphate, 100 mM sodium chloride, 0.01% surfactant P20 (Biacore AB, Uppsala, Sweden).
Ten, 2-fold dilutions of the peptide were injected over the FcRn-CM5 chip at a rate of 20 μl/min for 2 min. The peptide was dissociated from the chip for 2.5 minutes with buffer. Any remaining peptide was removed from the chip with a 30 second injection of HBS-P buffer (Biacore AB, Uppsala, Sweden) at a rate of 30 μl/min. Sensorgrams were generated and analyzed using BiaEval software version 3.1 (Biacore AB, Uppsala, Sweden). The equilibrium RU observed for each injection was plotted against concentration. The equilibrium KD values were derived by analysis of the plots using the steady state affinity model included in the BiaEval software.
The molecule QRFCTGHFXGLYPCNGP (Pen 4; Aib 9; disulfide 4-14; C-terminal amide) [Peptide No. 54] displayed a Kd of 5.2 µM. This counts as single-digit micromolar.

In turn, B10 yielded a Kd of 1.5 µM. With B2, the Kd came to 0.51 µM. The same measure, in the same setting: in the case of B3 it was 18.3 µM; in that of B11, 0.45 µM.

Molecule B5 showed a Kd of 0.72 µM. Still for that read-out and setting: in the case of B12 it was 3.8 µM; in that of B8, 0.24 µM.

For another assay the target is unchanged. Description: IgG competition ELISA. The source holds these as a separate data set.
The molecule RFCTGXFGGLYPC (Pen 3; PropargylGly 6; Sar 9; NMeLeu 10; disulfide 3-13; C-terminal amide) [Peptide No. 261] yielded an IC50 of 160 µM. In the case of B13, the IC50 was found to be 5.7 µM. Same read-out and setting: in the case of QRFCTGXFGGLYPCNGP (Pen 4; Thz 7; disulfide 4-14; C-terminal amide) [Peptide No. 91] it was 44 µM. Turning to B14, the IC50 stood at 2.4 µM.
